Results on 18 sequences are retold here after the DeepSol protein solubility set.

A short description of the data set: soluble on expression in E. coli; label from the status in PepcDB or PDB records.
“MAHHHHHHMEMHATHVAACSLRRLRSSAVTSRVMTSTHLSLPCRLKSYVLKFLRGQLPEDLKDLNGALGCLYGTLPDVDEFGQFVIAPEIVERFHQLGYIKLPRPVLDAQQVDKLADEVNELANNVEHHPKTEKLYATSLANLTEGPLFYCQGQWRAAWGMHDLIYLPTITVAASQILGNSIVRLWYDEVFMKEARKGPCVPWQQNYARWQHTTPVNHVTVMIALDTMNKDRGAPCLVPGSHRWREGGLLPSVPYDPAKDEAQQLNTIWEITNEEESEMLMDTPPATVDMKRGEALLIHPLTLFATHGNRSLDAVRCCFIHYMGGKTYATQNGPLLPHTTQFQAGAMIQGPFYPVVFDPAMTEELAMLPGESAAQKDITEEV”: the “soluble on expression in E. coli” value was “soluble”.
As to “MAHHHHHHMENIENIENIEKIHLTDDGGVIKTILRKGNEGEENVPKKGNEVTVHYIGKLESDGSIFDSSRQRDVPFKFHLGNGEVIKGWDICVASMKKNEKCLVRLDSKYGYGKEGCGETIPGNSVLIFEIELLSFKEAKKNIYDYTDEEKIQAAFELKDEGNEFFKKNEINEAIAKYKEALDYFMHTDEWEDELLEKKKNIQIICNLNLSTCYNKNKDYPNAIEHASKVLKLDKNNVKGLYKLGVANMNFGFLEEAKINLYKAASLNPKNLDIRNSYELCIAKLKEARKKDQITFG”, the “soluble on expression in E. coli” value is recorded as “soluble”.
For “MAHHHHHHMENVAKLQRQNASLKDRVSALEEQLAGATSSLARTGDCEQQISLLIERLGKEKERHKAVAEERNQLKDHLQDLEEEVEEYRTREEGWISGQERQQENEIAAQQRIAQLENDMRSCNAIVDNLTTQLTEAKHLNGVLQNQVKELKVSYSAQLDTVKESSSETVDQLRQEVEQLRSSLQNLSTEYDTRTAELEREVQNANMHAHQAEARLSEMALGSVNTLQDLRSELEDSQRSSATWKAEAQKARHEYTTLLEQYASLKRSRAAAEADLRDRLSYESNTVSALRKGIREWEDRYLALQESVGATQTEIEEQRKTIMQLEATIQKLKASGSDMLSPSQSEVVVSTNAPPVKASFSEPSLSGLPLDEILGRRLMPAPPLNPFMSMERPAWSDSRDRKTRERLEQEVVRQSAELERVRAAVADAEVWKAKYDRLQEEHDLLLQLYGQLEEDVSALRKNGAGILSADAAATSSTSGSVSAAAVP” the value was “soluble”; for “MAHHHHHHMFFRTCCRLMVRPTALQRCKSVNSVTLVGVVHDIQSGFVYEDAVTQFTLTTTSIDTTHPTQEVVVEKDHHTIRCFGELFSAEVKQKVKEGNVVCVNGRLRLSPQLEPSCNKHFYFPYIQVQPPHGQVAVIHGDRRNTPASVNPTAEEIPAESESGTTSKTS”, “not soluble”.
To “MAHHHHHHMFHGFPDVQIAPRDTVISEEFHLHDKEGRMGTLLQPMAQRMRISFSALTCLGSYAQNATCHYALFGRLCGVQLNETIEVTNVLPPVINPRPPEDETPEQREKRLLAQQREERQMYERMGKMFFKEELDSYHVGYFAICSAYTNAPYSVRTVQQLAQLALDGNPSVLVVYDPFRTSLMGKLYLRAFVPTREYVEFYTRLTDKRNILRENRLMRECNVGKGGVLREVKVEVDVDEYQLLCLSGFNVAPLSSTCRTLHSEVMTDYMAALIESVRHNADELSRGLHSESYFSQKEESYGPLGQRIDTLLKLMQLREQTQHLESLCDGVLLNTSLLRDL” belongs “soluble”; to “MAHHHHHHMFSPVYEDVSGLFGHPMPISGFGPSTELQFPQTSYMTTTTNAPQTPTQQQQQQLAGRATVYSLVDASGVQLHRQAAPPQQIPMSSVPFGAFDGASIVPYEVFMQHQQQQQLAAAGKPTAVHAQDGVKYYLSSSTGAPVMASAGPAATTQANIMQMQQHGGTLYTLESNGTTTALTSTPPAGGLFSGAAAANGAPPSGEYPFYAAATGFLSSGPLGMAPATVGSASVTPYAIQGHMPSASPRARGAVNRSPAATIAGNQHHSNSGNNSSSASTRRENQATLHEM”, “not soluble”.
Take “MAHHHHHHMFYMFLTRNDHQDRRRESPPPTPKKHGASFLRRIHLGEFSGRTICISWETLVEKHEWRDCAKETLLALSSNMIVYLMCHISNANEKGKVLSMVKDIPQLARHNILFCETEKGYEAFSRQIKPAILVTHDSAQAEFLSLVLPNVVLVGSSATGSAMTSISSLSELLF”: the “soluble on expression in E. coli” value is given as “not soluble”.
To “MAHHHHHHMGDDCETELVEVFGFISSGREDVRKMAVQGLAQQSKDNKELFALIASSAHGPRCIDVLLQFLHAGSVALLGDVLTVLINCAADGTCTEVLVTQKVVRRAMRLIDSVEASDHPQSLQRGLEEMTLMLLSNLTASHVSAVDDLLQVTDEDLRGFYLGKLLTYYTRFTVDDGCSVEVAVAGEQQQEDGGDDNKKLSEGDAVRSNSGGNKSEELNKTVPRDLQRWILQILLNVTRVADGQELLLEDDDWLMALSDCLSSLNPRHRLLAAQCFRNCSFQRERHPGILRSRCLRVCVERLSDGAEHIGEIEMLLAEITANLMQTEAGIGLLEELNAKKHLQASVTAGKVQADTCKFLNEHVLPLLDDIVDAYVMTSGDELD” belongs “not soluble”.
For “MAHHHHHHMGLLNTKPCSLIPAKEAFEREKKIYDKAILSFDGVNGYDVYNCSVPFTYDGKTYIFGRVEKKDEWVHSNSILFEKVGENRYRRHPTSITYNLEDPFVVKIHGEMVLGGTHVTKNGGKVSDYRCEFYHGTPLNLKYFSSGPSKMKDIRLVELADGKIGVFTHFRTEGSCLTGFATIDKIEDLTVEVINSAKLINHRPFGDAWGGPSQVYLLSSGLLGCISHHGYLLDQKDDIQLRIYACTSFVFDPATYDVYNFKIIGTKGCFPPCEPKLPHLADCAFVSGIEMRDDGKCNLYSGIGDVAEGCIVIDYPFEGYGKIVSDVAF” the value was “soluble”.
To “MAHHHHHHMGNDEIFEDLFISDTEPEELYEELGPIGVGNYGSVIKARNRQTQAIAAIKLVLLVDKDERDFVQKEISILKKCVHPNIVRYYGAHKSLSKLWIVMEYCEGGSVDMVYKVLRHPLPENLIAYVCRQVLLGLQYLHANRKIHRDIKGGNILLTRDGDVKLADFGVSTELSHSLSRRNTFVGTLLWMSPEAILELDYDEKADLWSLGITLIEMAEGAPPYIDTHPARALFMIPKVDPPTLHDKDRWSPQMALFLKRLLIKDYRLRPTATAMLNDPFVAPEKIGTKEQMKAVIDEVLAKKEAMSPQRLHGETNSSATFVERTSTDTDGEDGVTNDTCTSGRAPTGAKVPANTSPVAMEAIDITGAHLFFHDGTLLPLPMLSTHDIGFDELGLGREGIGPFAKPVPDAESLLVPPEQRSTALHGSGGLAYTMHVTQTLKSMLYYHKQLPFFREVTDTEAIKSKELQLKYGSILKSIYRL” belongs “soluble”.
As for “MAHHHHHHMGPRKSNAFASGKDDGAAAGKVRKVGGNGVGGSSATNSGSHKHGGAAAATMADIYTNEERAFLESQLALFTSGGGGSGGTDFARMTKEQWFAGLPTLVSATEKLLQAAADRYQQTCRERAAAAASVNGAQNAGSLPSADSSGVGKHGTTASSSHANSCTAEGIAPSGVAGSSDHRSTPAGGTPAQFAEENAYIIAQAQQLQWYPFTYQRWVELLLEPGKYHTACNDGGLRGDAIQTSLRRCILVTYPAVEGGDVI”, the “soluble on expression in E. coli” value was “soluble”.
For “MAHHHHHHMGRVRHGATICSAVSDATAGKQKSACVTDVEEIPTLSFLSSKSILSETVDRTIEVCDALLNEIPKAKSIKEKHDLIDSTSNVLCLLLDPCEFVRQVHPDAEYKQHASYAFQKGYEYMSKVNSRRDLYDVVLQLDSTEGHKELSSEEIKNVAQLRRDMESNGIHLPDKLREKVTEMNIEKEELAMRFLTEQGSKNPFATLRYLLQCRYELSQLLGFESFAEQQLRGTMLENQQRVWHFLCGIAHKYRREAEKEMDIIRSNVGEVRNRQNITDDVRARVAHSLRRDAEPETAAEYFSVANCIRGIQCLCLEVFGVRLEEVQFDKDEIFNNDAKKYHVYDENKAFLGVIVLDLYASEMKYCQAGHLTLQLGCIPHQEALAKVGLKLPKRQYPVVVLTCNVGACSPVQRLPNGRFDDESTLMHPNEVTTVFHEFGHAMHTIFGQTKVQNLAGTRASIDFVETFSQLFEQFLTSHEFLQLWAHRISTREPISFDMVMKRNAAADMFKHLDMMDQVVLSAVDQTLHGPQPYTVYFPRGDQGNLGKRTLGDIGDYGRGTYNLAKVLIDICTPLSIVTPTETGVLGTLSFEHLSGYPAGYYGYLYSLSIARRIWAKKFMKDPLNRDAGRELVQKVMRHGAACNPVDVIENYLEDKLDEIDIWV”, the “soluble on expression in E. coli” value is on record as “not soluble”.
To “MAHHHHHHMGTLEAQTQGPGSMDEVLLVKKLVEDAIVPTRGSKCAAGIDLYSNTNFIIQPHERFLVSTGVSVQIPHQCYGRIAPRSSLALKYGIDVGAGVIDEDYRGEIKVILFNHSNEIFNGRKGDRIAQLIIERISYCRISEVKELNTTDRGTNGFGSTGK” belongs “soluble”; to “MAHHHHHHMGTLEAQTQGPGSMMAASHDDDTVDGLATAVRGGDRAALPRAITLVESTRPDHREQAQQLLLRLLPDSGNAHRVGITGVPGVGKSTAIEALGMHLIERGHRVAVLAVDPSSTRTGGSILGDKTRMARLAVHPNAYIRPSPTSGTLGGVTRATRETVVLLEAAGFDVILIETVGVGQSEVAVANMVDTFVLLTLARTGDQLQGIKKGVLELADIVVVNKADGEHHKEARLAARELSAAIRLIYPREALWRPPVLTMSAVEGRGLAELWDTVERHRQVLTGAGEFDARRRDQQVDWTWQLVRDAVLDRVWSNPTVRKVRSELERRVRAGELTPALAAQQILEIANLTDR”, “soluble”.
To “MAHHHHHHMGTLEAQTQGPGSMSVMPDHWIKERALKDGMISPFVDHKEGTGVLSYGLSSYGYDARLDNKFKIFANTHSVVVDPKNFSQDSFVDREGDFCIIPPNSFMLAKTVEYFNIPRDVMVVCVGKSTYARCGIVVNVTPLEPGWSGYVTLEFSNTSPLPVKVYAFEGACQFLFFSGKERCSKSYDEAGGKYMGQSDVTLPIIS” belongs “soluble”; to “MAHHHHHHMGTLEAQTQGPGSMTAQSGLLQGKRGLILGVANNRSIAWGIAKAAREAGAELAFTYQGDALKKRVEPLAEELGAFVAGHCDVADAASIDAVFETLEKKWGKLDFLVHAIGFSDKDELTGRYIDTSEANFTNTMLISVYSLTAVSRRAEKLMADGGSILTLTYYGAEKVMPNYNVMGVAKAALEASVKYLAVDLGPQNIRVNAISAGPIKTLAASGIGDFRYILKWNEYNAPLRRTVTIDEVGDVGLYFLSDLSRSVTGEVHHADSGYHVIGMKAVDAPDISVVKD”, “soluble”; to “MAHHHHHHMGYLLEREQQRYSRHESAESATAFFASRGQTIDILGRTDPNQIKGNFFGLELYQDAMKVVMQRYTPEKRLTSADLWQPNALGDAPPPRHTLHRKLDDFLYLIVQEGATGKWTIPHTARKDDESLRMTADRAISSQNSEGLDCYVWSNAPQATVFLKDDNTRLFIYAATYLAGRPQFASFEPKPKDHAWVTRHELLQYSDTFKSAELLKALLDISADGTFEA”, “not soluble”.
As to “MAHHHHHHMIGLKSMAGVRDVVRGGSWPARLLDMFTSRAAQESFEFEAVVTDACAAANVPVPSEADLPHARWWKKLCRACQDKAGTTKHGSQLLRSRLTNALTQRLAVEEVYRLNGGEIAKEPAVENPIVIMGLPRSNGHMAAHVLARSGLFLTPRQCDTLSPSLLLDVERRDAFRKKFRGFSYLHPDFLCVRVPQADQVDDDLTLHLMTPQSYAWGLLHGLDEYLLECLEEDQLPVYSEVRRVMELLQWYRKCGHFSEPVTREFNPIDNAMELQAYGTKNVLLRPQWLLYSPFAILSPDAVNTAFPKMKAIWVHRALSQCLPSLCSALCLHNTLYTGKPPSDSQLASMGEKVLGIFGSGTAYAIEYYGKFDQRRMAHWSNRDVKRHATRVATKTLDYFSVELDRYRRMQMISGQTEYVSVSRPLHDAQMPYFCLHDGIIGDVFQDYIYQFAEFAFEKKFGITVKEYTPLAAPADAMAMRGIAHGSSEPRSAPALGAGQPMVGHFQQERRGFR”, the “soluble on expression in E. coli” value is recorded as “not soluble”.
